Paper PMC3781208 (Chemistry & biology, 2013)
Positions of bridges follow the written chain, without caps; N, C: chain ends. Non-standard residues stand in square brackets, D forms with d. Residues, ends and D or L forms follow the SMILES beside them. *: point of attachment. FITC = O=C1OC2(c3ccc(O)cc3Oc3cc(O)ccc32)c2ccc(NC(=S)*)cc21; S5 = C=CCCC[C@](C)(N)C(=O)O; Nle = CCCC[C@H](N)C(=O)O; βAla = NCCC(=O)O

Experiments:
FITC-PUMA SAHBF1 = FITC-PUMA SAHBF1 (UniProt Q9BXH1); assay: fluorescence polarisation
Sequence of FITC-PUMA SAHBF1 (Q9BXH1 131-153): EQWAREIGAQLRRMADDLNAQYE

[1] = biological target: FITC-PUMA BH3 (aa 131–153) (UniProt Q9BXH1); assay: fluorescence polarisation
BAXΔC = BAXΔC (Homo sapiens, UniProt Q07812); assay: Fluorescence polarization binding assay, BAXΔC; conditions: ratio of FP KDs
Sequence of BAXΔC (Q07812 whole entry, stated change not applied): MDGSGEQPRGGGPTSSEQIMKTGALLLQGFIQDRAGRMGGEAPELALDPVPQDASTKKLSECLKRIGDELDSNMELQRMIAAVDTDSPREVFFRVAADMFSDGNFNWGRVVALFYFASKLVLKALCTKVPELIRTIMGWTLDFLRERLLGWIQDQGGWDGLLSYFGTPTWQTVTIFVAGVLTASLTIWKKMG

Row | Kd (FITC-PUMA SAHBF1) | Kd [1] | Molecule | preference for BAXΔC over BAX A112C/V177C (BAXΔC)
1 | 90 nM |  | BAX A112C/V177C (from UniProt Q07812 1-192) (natural protein) | 
2 | 70 nM | 306 nM | BAXΔC (domain or fragment) | 
3 |  |  | CCCC[C@@H]1NC(=O)[C@@](C)(NC(=O)[C@H](CCCNC(=N)N)NC(=O)[C@H](CC(C)C)NC(=O)[C@H](CCC(N)=O)NC(=O)[C@H](C)NC(=O)CNC(=O)[C@@H](NC(=O)[C@H](CCC(=O)O)NC(=O)[C@H](CCCNC(=N)N)NC(=O)[C@H](C)NC(=O)[C@H](Cc2c[nH]c3ccccc23)NC(=O)[C@H](CCC(N)=O)NC(=O)[C@H](CCC(=O)O)NC(=O)CCNC(=S)Nc2ccc3c(c2)C(=O)OC32c3ccc(O)cc3Oc3cc(O)ccc32)[C@@H](C)CC)CCCC=CCCC[C@@](C)(C(=O)N[C@@H](CC(C)C)C(=O)N[C@@H](CC(N)=O)C(=O)N[C@@H](C)C(=O)N[C@@H](CCC(N)=O)C(=O)N[C@@H](Cc2ccc(O)cc2)C(=O)N[C@@H](CCC(=O)O)C(N)=O)NC(=O)[C@H](CC(=O)O)NC(=O)[C@H](C)NC1=O [FITC-PUMA SAHBA1] ({FITC-βAla}-EQWAREIGAQLR[S5][Nle]AD[S5]LNAQYE-NH2; staple 13-17; N-terminus and C-terminus assumed) | 3 fold
